Tested on: Human keratinocytes (HaCaT)
Experiment: Cell scratch assay
Assay type: cell-based
Settings: 24 h after scratch, peptides 12.5 ppm, EGF 50 U/mL, compared with blank control, FIG. 8
Experimental: Human keratinocytes (HaCaT) were purchased from the Kunming Cell Bank of China Center for Type Culture Collection under the Chinese Academy of Sciences.
Polypeptide group: Peptide (13) and peptide (20). The test concentrations of all the above samples were 12.5 ppm.
Blank control group: PBS.
Positive control group: 50 U/mL of EGF.
A bottle of HaCaT cells in good exponential growth phase was taken. A 0.25% trypsin digestion solution was added so that digestion allowed the adherent cells to fall off, counting 1 to 4×10^5 cells/mL, which were prepared into a cell suspension.
The cells were inoculated into a 24-well plate at a density of 150,000 cells/well, with 2 mL cell suspension per well. After the cells attached to the wall and grew to 100% confluence, the culture medium was replaced with a medium containing 0.5%-1% fetal bovine serum to maintain the cells for 24 h for synchronization. A sterilized pipette tip was used to scratch a wound, the detached cells were washed off with PBS, and the samples to be tested were added. The incubation was continued in the 5% CO2 incubator at 37° C., and the migration of cells was observed under an optical microscope after 24 h.
The scratch migration experiment of cells can reflect the proliferation and repair ability of cells. […]

B1: EGF: positive control group: 50 U/mL of EGF in the cell scratch assay (protein, UniProt P01133 23-1207, looked up)
Pro-epidermal growth factor: PQHWSCPEGTLAGNGNSTCVGPAPFLIFSHGNSIFRIDTEGTNYEQLVVDAGVSVIMDFHYNEKRIYWVDLERQLLQRVFLNGSRQERVCNIEKNVSGMAINWINEEVIWSNQQEGIITVTDMKGNNSHILLSALKYPANVAVDPVERFIFWSSEVAGSLYRADLDGVGVKALLETSEKITAVSLDVLDKRLFWIQYNREGSNSLICSCDYDGGSVHISKHPTQHNLFAMSLFGDRIFYSTWKMKTIWIANKHTGKDMVRINLHSSFVPLGELKVVHPLAQPKAEDDTWEPEQKLCKLRKGNCSSTVCGQDLQSHLCMCAEGYALSRDRKYCEDVNECAFWNHGCTLGCKNTPGSYYCTCPVGFVLLPDGKRCHQLVSCPRNVSECSHDCVLTSEGPLCFCPEGSVLERDGKTCSGCSSPDNGGCSQLCVPLSPVSWECDCFPGYDLQLDEKSCAASGPQPFLLFANSQDIRHMHFDGTDYGTLLSQQMGMVYALDHDPVENKIYFAHTALKWIERANMDGSQRERLIEEGVDVPEGLAVDWIGRRFYWTDRGKSLIGRSDLNGKRSKIITKENISQPRGIAVHPMAKRLFWTDTGINPRIESSSLQGLGRLVIASSDLIWPSGITIDFLTDKLYWCDAKQSVIEMANLDGSKRRRLTQNDVGHPFAVAVFEDYVWFSDWAMPSVMRVNKRTGKDRVRLQGSMLKPSSLVVVHPLAKPGADPCLYQNGGCEHICKKRLGTAWCSCREGFMKASDGKTCLALDGHQLLAGGEVDLKNQVTPLDILSKTRVSEDNITESQHMLVAEIMVSDQDDCAPVGCSMYARCISEGEDATCQCLKGFAGDGKLCSDIDECEMGVPVCPPASSKCINTEGGYVCRCSEGYQGDGIHCLDIDECQLGEHSCGENASCTNTEGGYTCMCAGRLSEPGLICPDSTPPPHLREDDHHYSVRNSDSECPLSHDGYCLHDGVCMYIEALDKYACNCVVGYIGERCQYRDLKWWELRHAGHGQQQKVIVVAVCVVVLVMLLLLSLWGAHYYRTQKLLSKNPKNPYEESSRDVRSRRPADTEDGMSSCPQPWFVVIKEHQDLKNGGQPVAGEDGQAADGSMQPTSWRQEPQLCGMGTEQGCWIPVSSDKGSCPQVMERSFHMPSYGTQTLEGGVEKPHSLLSANPLWQQRALDPPHQMELTQ
modifications: Pro-epidermal growth factor
notes: positive control group: 50 U/mL of EGF in the cell scratch assay
cell proliferation and migration (scratch spacing): obvious cell proliferation and migration
